Experimental data as given in patent publication US20240279278A1, “NMU RECEPTOR 2 AGONISTS” (Boehringer Ingelheim International GmbH, priority 2023, published 2024).

B1: C18DA-gGlu3-Sar12-AEPipAc-Tyr-Phe-NMeLeu-Nle-Orn-Pro-Arg-Gly-NH2 (peptide)
peptide: EEEXXXXXXXXXXXXXYFLXXPRG
HELM: PEPTIDE1{[O=C(O)CCCCCCCCCCCCCCCCC(=O)[*:2]].[gGlu].[gGlu].[gGlu].[Sar].[Sar].[Sar].[Sar].[Sar].[Sar].[Sar].[Sar].[Sar].[Sar].[Sar].[Sar].[O=C(CN1CCN(CCN[*:1])CC1)[*:2]].Y.F.[meL].[Nle].[Orn].P.R.G.[am]}$$$$V2.0
SMILES: CCCC[C@H](NC(=O)[C@H](CC(C)C)N(C)C(=O)[C@H](Cc1ccccc1)NC(=O)[C@H](Cc1ccc(O)cc1)NC(=O)CN1CCN(CCNC(=O)CN(C)C(=O)CN(C)C(=O)CN(C)C(=O)CN(C)C(=O)CN(C)C(=O)CN(C)C(=O)CN(C)C(=O)CN(C)C(=O)CN(C)C(=O)CN(C)C(=O)CN(C)C(=O)CN(C)C(=O)CC[C@H](NC(=O)CC[C@H](NC(=O)CC[C@H](NC(=O)CCCCCCCCCCCCCCCCC(=O)O)C(=O)O)C(=O)O)C(=O)O)CC1)C(=O)N[C@@H](CCCN)C(=O)N1CCC[C@H]1C(=O)N[C@@H](CCCNC(=N)N)C(=O)NCC(N)=O
B2: C20DA-gGlu3-Sar9-AEPipAc-Tyr-Phe-NMeLeu-Nle-Arg-Pro-Arg-Gly-NH2 (peptide)
peptide: EEEXXXXXXXXXXYFLXRPRG
HELM: PEPTIDE1{[O=C(O)CCCCCCCCCCCCCCCCCCC(=O)[*:2]].[gGlu].[gGlu].[gGlu].[Sar].[Sar].[Sar].[Sar].[Sar].[Sar].[Sar].[Sar].[Sar].[O=C(CN1CCN(CCN[*:1])CC1)[*:2]].Y.F.[meL].[Nle].R.P.R.G.[am]}$$$$V2.0
SMILES: CCCC[C@H](NC(=O)[C@H](CC(C)C)N(C)C(=O)[C@H](Cc1ccccc1)NC(=O)[C@H](Cc1ccc(O)cc1)NC(=O)CN1CCN(CCNC(=O)CN(C)C(=O)CN(C)C(=O)CN(C)C(=O)CN(C)C(=O)CN(C)C(=O)CN(C)C(=O)CN(C)C(=O)CN(C)C(=O)CN(C)C(=O)CC[C@H](NC(=O)CC[C@H](NC(=O)CC[C@H](NC(=O)CCCCCCCCCCCCCCCCCCC(=O)O)C(=O)O)C(=O)O)C(=O)O)CC1)C(=O)N[C@@H](CCCNC(=N)N)C(=O)N1CCC[C@H]1C(=O)N[C@@H](CCCNC(=N)N)C(=O)NCC(N)=O
B3: C20DA-gGlu3-Sar15-AEPipAc-Tyr-Phe-NMeLeu-Nle-Orn-Pro-Arg-Gly-NH2 (peptide)
peptide: EEEXXXXXXXXXXXXXXXXYFLXXPRG
HELM: PEPTIDE1{[O=C(O)CCCCCCCCCCCCCCCCCCC(=O)[*:2]].[gGlu].[gGlu].[gGlu].[Sar].[Sar].[Sar].[Sar].[Sar].[Sar].[Sar].[Sar].[Sar].[Sar].[Sar].[Sar].[Sar].[Sar].[Sar].[O=C(CN1CCN(CCN[*:1])CC1)[*:2]].Y.F.[meL].[Nle].[Orn].P.R.G.[am]}$$$$V2.0
SMILES: CCCC[C@H](NC(=O)[C@H](CC(C)C)N(C)C(=O)[C@H](Cc1ccccc1)NC(=O)[C@H](Cc1ccc(O)cc1)NC(=O)CN1CCN(CCNC(=O)CN(C)C(=O)CN(C)C(=O)CN(C)C(=O)CN(C)C(=O)CN(C)C(=O)CN(C)C(=O)CN(C)C(=O)CN(C)C(=O)CN(C)C(=O)CN(C)C(=O)CN(C)C(=O)CN(C)C(=O)CN(C)C(=O)CN(C)C(=O)CN(C)C(=O)CC[C@H](NC(=O)CC[C@H](NC(=O)CC[C@H](NC(=O)CCCCCCCCCCCCCCCCCCC(=O)O)C(=O)O)C(=O)O)C(=O)O)CC1)C(=O)N[C@@H](CCCN)C(=O)N1CCC[C@H]1C(=O)N[C@@H](CCCNC(=N)N)C(=O)NCC(N)=O
B4: C20DA-gGlu3-Sar12-AEPipAc-Tyr-Phe-NMeLeu-Nle-Arg-Pro-Arg-Gly-NH2 (peptide)
peptide: EEEXXXXXXXXXXXXXYFLXRPRG
HELM: PEPTIDE1{[O=C(O)CCCCCCCCCCCCCCCCCCC(=O)[*:2]].[gGlu].[gGlu].[gGlu].[Sar].[Sar].[Sar].[Sar].[Sar].[Sar].[Sar].[Sar].[Sar].[Sar].[Sar].[Sar].[O=C(CN1CCN(CCN[*:1])CC1)[*:2]].Y.F.[meL].[Nle].R.P.R.G.[am]}$$$$V2.0
SMILES: CCCC[C@H](NC(=O)[C@H](CC(C)C)N(C)C(=O)[C@H](Cc1ccccc1)NC(=O)[C@H](Cc1ccc(O)cc1)NC(=O)CN1CCN(CCNC(=O)CN(C)C(=O)CN(C)C(=O)CN(C)C(=O)CN(C)C(=O)CN(C)C(=O)CN(C)C(=O)CN(C)C(=O)CN(C)C(=O)CN(C)C(=O)CN(C)C(=O)CN(C)C(=O)CN(C)C(=O)CC[C@H](NC(=O)CC[C@H](NC(=O)CC[C@H](NC(=O)CCCCCCCCCCCCCCCCCCC(=O)O)C(=O)O)C(=O)O)C(=O)O)CC1)C(=O)N[C@@H](CCCNC(=N)N)C(=O)N1CCC[C@H]1C(=O)N[C@@H](CCCNC(=N)N)C(=O)NCC(N)=O
B5: C18DA-gGlu3-Sar12-AEPipAc-Tyr-Phe-NMeLeu-Nle-Dbu-NMeAla-Arg-Gly-NH2 (peptide)
peptide: EEEXXXXXXXXXXXXXYFLXXARG
HELM: PEPTIDE1{[O=C(O)CCCCCCCCCCCCCCCCC(=O)[*:2]].[gGlu].[gGlu].[gGlu].[Sar].[Sar].[Sar].[Sar].[Sar].[Sar].[Sar].[Sar].[Sar].[Sar].[Sar].[Sar].[O=C(CN1CCN(CCN[*:1])CC1)[*:2]].Y.F.[meL].[Nle].[Dab].[meA].R.G.[am]}$$$$V2.0
SMILES: CCCC[C@H](NC(=O)[C@H](CC(C)C)N(C)C(=O)[C@H](Cc1ccccc1)NC(=O)[C@H](Cc1ccc(O)cc1)NC(=O)CN1CCN(CCNC(=O)CN(C)C(=O)CN(C)C(=O)CN(C)C(=O)CN(C)C(=O)CN(C)C(=O)CN(C)C(=O)CN(C)C(=O)CN(C)C(=O)CN(C)C(=O)CN(C)C(=O)CN(C)C(=O)CN(C)C(=O)CC[C@H](NC(=O)CC[C@H](NC(=O)CC[C@H](NC(=O)CCCCCCCCCCCCCCCCC(=O)O)C(=O)O)C(=O)O)C(=O)O)CC1)C(=O)N[C@@H](CCN)C(=O)N(C)[C@@H](C)C(=O)N[C@@H](CCCNC(=N)N)C(=O)NCC(N)=O
B6: C20DA-gGlu3-Sar15-AEPipAc-Tyr-Phe-NMeLeu-Nle-Dbu-Pro-Arg-Gly-NH2 (peptide)
peptide: EEEXXXXXXXXXXXXXXXXYFLXXPRG
HELM: PEPTIDE1{[O=C(O)CCCCCCCCCCCCCCCCCCC(=O)[*:2]].[gGlu].[gGlu].[gGlu].[Sar].[Sar].[Sar].[Sar].[Sar].[Sar].[Sar].[Sar].[Sar].[Sar].[Sar].[Sar].[Sar].[Sar].[Sar].[O=C(CN1CCN(CCN[*:1])CC1)[*:2]].Y.F.[meL].[Nle].[Dab].P.R.G.[am]}$$$$V2.0
SMILES: CCCC[C@H](NC(=O)[C@H](CC(C)C)N(C)C(=O)[C@H](Cc1ccccc1)NC(=O)[C@H](Cc1ccc(O)cc1)NC(=O)CN1CCN(CCNC(=O)CN(C)C(=O)CN(C)C(=O)CN(C)C(=O)CN(C)C(=O)CN(C)C(=O)CN(C)C(=O)CN(C)C(=O)CN(C)C(=O)CN(C)C(=O)CN(C)C(=O)CN(C)C(=O)CN(C)C(=O)CN(C)C(=O)CN(C)C(=O)CN(C)C(=O)CC[C@H](NC(=O)CC[C@H](NC(=O)CC[C@H](NC(=O)CCCCCCCCCCCCCCCCCCC(=O)O)C(=O)O)C(=O)O)C(=O)O)CC1)C(=O)N[C@@H](CCN)C(=O)N1CCC[C@H]1C(=O)N[C@@H](CCCNC(=N)N)C(=O)NCC(N)=O
B7: C18DA-gGlu3-Sar15-AEPipAc-Tyr-Phe-NMeLeu-Nle-Arg-Pro-Arg-Gly-NH2 (peptide)
peptide: EEEXXXXXXXXXXXXXXXXYFLXRPRG
HELM: PEPTIDE1{[O=C(O)CCCCCCCCCCCCCCCCC(=O)[*:2]].[gGlu].[gGlu].[gGlu].[Sar].[Sar].[Sar].[Sar].[Sar].[Sar].[Sar].[Sar].[Sar].[Sar].[Sar].[Sar].[Sar].[Sar].[Sar].[O=C(CN1CCN(CCN[*:1])CC1)[*:2]].Y.F.[meL].[Nle].R.P.R.G.[am]}$$$$V2.0
SMILES: CCCC[C@H](NC(=O)[C@H](CC(C)C)N(C)C(=O)[C@H](Cc1ccccc1)NC(=O)[C@H](Cc1ccc(O)cc1)NC(=O)CN1CCN(CCNC(=O)CN(C)C(=O)CN(C)C(=O)CN(C)C(=O)CN(C)C(=O)CN(C)C(=O)CN(C)C(=O)CN(C)C(=O)CN(C)C(=O)CN(C)C(=O)CN(C)C(=O)CN(C)C(=O)CN(C)C(=O)CN(C)C(=O)CN(C)C(=O)CN(C)C(=O)CC[C@H](NC(=O)CC[C@H](NC(=O)CC[C@H](NC(=O)CCCCCCCCCCCCCCCCC(=O)O)C(=O)O)C(=O)O)C(=O)O)CC1)C(=O)N[C@@H](CCCNC(=N)N)C(=O)N1CCC[C@H]1C(=O)N[C@@H](CCCNC(=N)N)C(=O)NCC(N)=O
B8: C20DA-gGlu3-Sar15-AEPipAc-Tyr-Phe-NMeLeu-Nle-Dbu-NMeAla-Arg-Gly-NH2 (peptide)
peptide: EEEXXXXXXXXXXXXXXXXYFLXXARG
HELM: PEPTIDE1{[O=C(O)CCCCCCCCCCCCCCCCCCC(=O)[*:2]].[gGlu].[gGlu].[gGlu].[Sar].[Sar].[Sar].[Sar].[Sar].[Sar].[Sar].[Sar].[Sar].[Sar].[Sar].[Sar].[Sar].[Sar].[Sar].[O=C(CN1CCN(CCN[*:1])CC1)[*:2]].Y.F.[meL].[Nle].[Dab].[meA].R.G.[am]}$$$$V2.0
SMILES: CCCC[C@H](NC(=O)[C@H](CC(C)C)N(C)C(=O)[C@H](Cc1ccccc1)NC(=O)[C@H](Cc1ccc(O)cc1)NC(=O)CN1CCN(CCNC(=O)CN(C)C(=O)CN(C)C(=O)CN(C)C(=O)CN(C)C(=O)CN(C)C(=O)CN(C)C(=O)CN(C)C(=O)CN(C)C(=O)CN(C)C(=O)CN(C)C(=O)CN(C)C(=O)CN(C)C(=O)CN(C)C(=O)CN(C)C(=O)CN(C)C(=O)CC[C@H](NC(=O)CC[C@H](NC(=O)CC[C@H](NC(=O)CCCCCCCCCCCCCCCCCCC(=O)O)C(=O)O)C(=O)O)C(=O)O)CC1)C(=O)N[C@@H](CCN)C(=O)N(C)[C@@H](C)C(=O)N[C@@H](CCCNC(=N)N)C(=O)NCC(N)=O

Biological target: T1, human neuromedin U receptor 1 (human, UniProt Q9HB89 24-426)
T1 sequence (looked up): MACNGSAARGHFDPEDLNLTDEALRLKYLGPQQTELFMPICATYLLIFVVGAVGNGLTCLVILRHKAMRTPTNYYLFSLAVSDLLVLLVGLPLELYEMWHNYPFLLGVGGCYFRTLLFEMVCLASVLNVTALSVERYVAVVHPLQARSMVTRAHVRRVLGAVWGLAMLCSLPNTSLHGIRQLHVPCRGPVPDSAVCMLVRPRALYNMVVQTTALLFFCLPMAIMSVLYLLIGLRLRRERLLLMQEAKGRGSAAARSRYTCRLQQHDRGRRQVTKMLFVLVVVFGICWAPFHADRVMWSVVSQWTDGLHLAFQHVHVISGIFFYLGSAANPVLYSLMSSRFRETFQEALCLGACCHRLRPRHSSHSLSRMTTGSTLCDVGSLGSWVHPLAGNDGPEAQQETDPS
Test: cell-based or functional assay

EC50 (hNMUR1) buffer [nM]	Binder
660	B1
130	B2
890	B3
120	B4
> 1000	B5
1500	B6
250	B7
> 1000	B8
